For test [1], the target named is T1, human CD28 on CHO cells (parental cell line CHO-k1 ATCC #CCL-61, modified to stably overexpress human CD28) (human, UniProt P10747 19-220).
T1 construct: also called hu CD28; CHO-hCD28
Nature of the test: flow cytometry on CHO cells stably expressing human CD28, FAP-CD28 1+1 constructs, MFI (PE).

The target in test [2] is T2, human FAP on 3T3-huFAP cells (clone 19) (human, UniProt Q12884 1-760). Nature of the test: flow cytometry on 3T3-huFAP cells, FAP-CD28 1+1 constructs, MFI (PE).
The target in test [3] is T3, biotinylated huCD28-Fc (dimeric CD28-Fc construct with a monovalent biotinylated avi-tag) (human, UniProt P10747 19-152, biotinylated at the C-terminal avi tag).
T3 construct: not shown: hum IgG1 Fc fragment with hole and PG-LALA mutations; hum IgG1 Fc fragment with knob and PG-LALA mutations
Nature of the test: SPR, ProteOn XPR36, huCD28-Fc on NLC chip, bispecific as analyte. For orientation: Surface plasmon resonance follows binding to a sensor surface in real time, without labels.

Test [4] concerns the target T1, human CD28 on CHO cells (parental cell …). In words: binding to CHO cells expressing human CD28 (by the table's title).
For test [5], the target named is T4, human GPRC5D on CHO-hGPRC5D cells (human, UniProt Q9NZD1 1-345).
T4 construct: also called CHO huGPRC5D L2
Nature of the test: flow cytometry on CHO huGPRC5D cells, AF488 anti-human IgG Fc secondary. For orientation: Flow cytometry measures light scatter and fluorescence of single cells or particles in a stream.

The target of test [6] is T1, human CD28 on CHO cells (parental cell …). In words: flow cytometry on CHO-hCD28 cells.
For test [7], the target named is T2, human FAP on 3T3-huFAP cells (clone 19). In words: flow cytometry on 3T3-huFAP cells, median fluorescence intensity (axis MFI APC).
Test [8] deals with T4, human GPRC5D on CHO-hGPRC5D cells. Nature of the test: flow cytometry on CHO huGPRC5D cells, PE anti-human IgG Fc secondary.
Test [9] has as its target T1, human CD28 on CHO cells (parental cell …). In words: flow cytometry on CHO-k1 cells expressing human CD28, PE anti-human secondary antibody, MFI.
Test [10] deals with T5, human HER3 on T-47D cells (human, UniProt P21860 20-1342).
T5 construct: also called ErbB3
Nature of the test: flow cytometry on T-47D cells, PE anti-human secondary antibody, MFI.

B1: FAP (4B9) - CD28 (CD28(SA)_Variant 27) 1+1 (bispecific antibody, human IgG1, kappa, L234A L235A)
heavy 1: EIVLTQSPGTLSLSPGERATLSCRASQSVTSSYLAWYQQKPGQAPRLLINVGSRRATGIPDRFSGSGSGTDFTLTISRLEPEDFAVYYCQQGIMLPPTFGQGTKVEIKSSASTKGPSVFPLAPSSKSTSGGTAALGCLVKDYFPEPVTVSWNSGALTSGVHTFPAVLQSSGLYSLSSVVTVPSSSLGTQTYICNVNHKPSNTKVDKKVEPKSCDKTHTCPPCPAPEAAGGPSVFLFPPKPKDTLMISRTPEVTCVVVDVSHEDPEVKFNWYVDGVEVHNAKTKPREEQYNSTYRVVSVLTVLHQDWLNGKEYKCKVSNKALGAPIEKTISKAKGQPREPQVCTLPPSRDELTKNQVSLSCAVKGFYPSDIAVEWESNGQPENNYKTTPPVLDSDGSFFLVSKLTVDKSRWQQGNVFSCSVMHEALHNHYTQKSLSLSP
light 1: EVQLLESGGGLVQPGGSLRLSCAASGFTFSSYAMSWVRQAPGKGLEWVSAIIGSGASTYYADSVKGRFTISRDNSKNTLYLQMNSLRAEDTAVYYCAKGWFGGFNYWGQGTLVTVSSASVAAPSVFIFPPSDEQLKSGTASVVCLLNNFYPREAKVQWKVDNALQSGNSQESVTEQDSKDSTYSLSSTLTLSKADYEKHKVYACEVTHQGLSSPVTKSFNRGEC
heavy 2: not shown
light 2: not shown
notes: huIgG1 PG-LALA CrossFab 1+1; also called P1AE3140
As usually defined, the EC50 (read off the curve) is the concentration needed to bring the measured effect to its halfway point. By Kd is commonly meant the constant that tells how readily two partners part at equilibrium. Usually koff stands for the rate constant with which the complex falls apart. The low end stands for slow dissociation, the high end for fast dissociation. What is called kon is the rate constant with which the complex forms. Low values mean slow association, high ones fast association. Take B1: the “EC50 (read off the curve)” value in [1] was about 3 nM. In addition, the binding result in [2] is recorded as “binds”. In [3], this molecule came in with a Kd of 5.4 nM, a dissociation rate constant (koff) of 0.00121 s⁻¹ and a kon of 227000 M⁻¹ s⁻¹. Moreover, the Kd in [4] is 5.4 nM.

B2: GPRC5D (5E11)-CD28 (SA_Variant 15) 1+1 format (Molecule 16A) (bispecific antibody, human IgG1, kappa, L234A L235A)
heavy 1: not shown
light 1: QVQLVQSGAEVKKPGASVKVSCKASGYTFTSYYIHWVRQAPGQGLEWIGSIYPGNVQTNYNEKFKDRATLTVDTSISTAYMELSRLRSDDTAVYFCTRSHYGLDWNFDVWGQGTTVTVSSASVAAPSVFIFPPSDEQLKSGTASVVCLLNNFYPREAKVQWKVDNALQSGNSQESVTEQDSKDSTYSLSSTLTLSKADYEKHKVYACEVTHQGLSSPVTKSFNRGEC
heavy 2: EVQLLESGGGLVQPGGSLRLSCAASGFTFSKYAMAWVRQAPGKGLEWVASISTGGVNTYYADSVKGRFTISRDNSKNTLYLQMNSLRAEDTAVYYCATHTGDYFDYWGQGTMVTVSSASTKGPSVFPLAPSSKSTSGGTAALGCLVEDYFPEPVTVSWNSGALTSGVHTFPAVLQSSGLYSLSSVVTVPSSSLGTQTYICNVNHKPSNTKVDEKVEPKSCDKTHTCPPCPAPEAAGGPSVFLFPPKPKDTLMISRTPEVTCVVVDVSHEDPEVKFNWYVDGVEVHNAKTKPREEQYNSTYRVVSVLTVLHQDWLNGKEYKCKVSNKALGAPIEKTISKAKGQPREPQVCTLPPSRDELTKNQVSLSCAVKGFYPSDIAVEWESNGQPENNYKTTPPVLDSDGSFFLVSKLTVDKSRWQQGNVFSCSVMHEALHNHYTQKSLSLSP
light 2: EIVLTQSPGTLSLSPGERATLSCRASQSVSISGINLMNWYQQKPGQQPKLLIYHASILASGIPDRFSGSGSGTDFTLTISRLEPEDFAVYYCQQTRESPLTFGQGTRLEIKRTVAAPSVFIFPPSDRKLKSGTASVVCLLNNFYPREAKVQWKVDNALQSGNSQESVTEQDSKDSTYSLSSTLTLSKADYEKHKVYACEVTHQGLSSPVTKSFNRGEC
notes: huIgG1 PG-LALA CrossFab; also called P1AF1272
By EC50 is commonly meant the midpoint of the concentration-response curve. As to B2, the binding result in [5] is reported as “binds”. For the same molecule, in test [6], the EC50 lay within 4.7 to 5.2 nM.

B3: FAP-CD28SA 2+1 (P1AD5231) (bispecific antibody, human IgG1, kappa, L234A L235A)
heavy chain CD28(SA) VLCH1 - FAP(4B9) VHCH1 EE - Fc knob PGLALA: not shown
heavy chain FAP(4B9) VHCH1 EE - Fc hole PGLALA: EVQLLESGGGLVQPGGSLRLSCAASGFTFSSYAMSWVRQAPGKGLEWVSAIIGSGASTYYADSVKGRFTISRDNSKNTLYLQMNSLRAEDTAVYYCAKGWFGGFNYWGQGTLVTVSSASTKGPSVFPLAPSSKSTSGGTAALGCLVEDYFPEPVTVSWNSGALTSGVHTFPAVLQSSGLYSLSSVVTVPSSSLGTQTYICNVNHKPSNTKVDEKVEPKSCDKTHTCPPCPAPEAAGGPSVFLFPPKPKDTLMISRTPEVTCVVVDVSHEDPEVKFNWYVDGVEVHNAKTKPREEQYNSTYRVVSVLTVLHQDWLNGKEYKCKVSNKALGAPIEKTISKAKGQPREPQVCTLPPSRDELTKNQVSLSCAVKGFYPSDIAVEWESNGQPENNYKTTPPVLDSDGSFFLVSKLTVDKSRWQQGNVFSCSVMHEALHNHYTQKSLSLSP
CD28(SA) VHCL: QVQLVQSGAEVKKPGASVKVSCKASGYTFTSYYIHWVRQAPGQGLEWIGCIYPGNVNTNYNEKFKDRATLTVDTSISTAYMELSRLRSDDTAVYFCTRSHYGLDWNFDVWGQGTTVTVSSASVAAPSVFIFPPSDEQLKSGTASVVCLLNNFYPREAKVQWKVDNALQSGNSQESVTEQDSKDSTYSLSSTLTLSKADYEKHKVYACEVTHQGLSSPVTKSFNRGEC
FAP(4B9) VLCL RK: EIVLTQSPGTLSLSPGERATLSCRASQSVTSSYLAWYQQKPGQAPRLLINVGSRRATGIPDRFSGSGSGTDFTLTISRLEPEDFAVYYCQQGIMLPPTFGQGTKVEIKRTVAAPSVFIFPPSDRKLKSGTASVVCLLNNFYPREAKVQWKVDNALQSGNSQESVTEQDSKDSTYSLSSTLTLSKADYEKHKVYACEVTHQGLSSPVTKSFNRGEC
notes: monovalent for CD28, bivalent for FAP; also called Molecule G; FAP (4B9)-CD28 (SA) 2+1
B3: in [7], the “EC50 (read off the curve)” value is about 0.3 nM.

B4: GPRC5D (5E11)-CD28 (SA_Variant 8) 1+1 format (Molecule 16B) (bispecific antibody, human IgG1, kappa, L234A L235A)
heavy 1: not shown
light 1: QVQLVQSGAEVKKPGASVKVSCKASGYTFTSYYIHWVRQAPGQGLEWIGSIYPGNVQTNYNEKFKDRATLTVDTSISTAYMELSRLRSDDTAVYFCTRSHYGLDFNFDVWGQGTTVTVSSASVAAPSVFIFPPSDEQLKSGTASVVCLLNNFYPREAKVQWKVDNALQSGNSQESVTEQDSKDSTYSLSSTLTLSKADYEKHKVYACEVTHQGLSSPVTKSFNRGEC
heavy 2: EVQLLESGGGLVQPGGSLRLSCAASGFTFSKYAMAWVRQAPGKGLEWVASISTGGVNTYYADSVKGRFTISRDNSKNTLYLQMNSLRAEDTAVYYCATHTGDYFDYWGQGTMVTVSSASTKGPSVFPLAPSSKSTSGGTAALGCLVEDYFPEPVTVSWNSGALTSGVHTFPAVLQSSGLYSLSSVVTVPSSSLGTQTYICNVNHKPSNTKVDEKVEPKSCDKTHTCPPCPAPEAAGGPSVFLFPPKPKDTLMISRTPEVTCVVVDVSHEDPEVKFNWYVDGVEVHNAKTKPREEQYNSTYRVVSVLTVLHQDWLNGKEYKCKVSNKALGAPIEKTISKAKGQPREPQVCTLPPSRDELTKNQVSLSCAVKGFYPSDIAVEWESNGQPENNYKTTPPVLDSDGSFFLVSKLTVDKSRWQQGNVFSCSVMHEALHNHYTQKSLSLSP
light 2: EIVLTQSPGTLSLSPGERATLSCRASQSVSISGINLMNWYQQKPGQQPKLLIYHASILASGIPDRFSGSGSGTDFTLTISRLEPEDFAVYYCQQTRESPLTFGQGTRLEIKRTVAAPSVFIFPPSDRKLKSGTASVVCLLNNFYPREAKVQWKVDNALQSGNSQESVTEQDSKDSTYSLSSTLTLSKADYEKHKVYACEVTHQGLSSPVTKSFNRGEC
notes: huIgG1 PG-LALA CrossFab; also called P1AF2954
With B4, in test [6], the 50% effective concentration (EC50) was found to be 74.2 nM. For the same molecule, the binding result in [8] was “binds”.

B5: HER3(lumretuzumab)-CD28 (SA_Variant 15) 1+1 format (Molecule 14B) (bispecific antibody, human IgG1, kappa, L234A L235A)
heavy 1: not shown
light 1: not shown
heavy 2: DIVMTQSPDSLAVSLGERATINCKSSQSVLNSGNQKNYLTWYQQKPGQPPKLLIYWASTRESGVPDRFSGSGSGTDFTLTISSLQAEDVAVYYCQSDYSYPYTFGQGTKLEIKSSASTKGPSVFPLAPSSKSTSGGTAALGCLVKDYFPEPVTVSWNSGALTSGVHTFPAVLQSSGLYSLSSVVTVPSSSLGTQTYICNVNHKPSNTKVDKKVEPKSCDKTHTCPPCPAPEAAGGPSVFLFPPKPKDTLMISRTPEVTCVVVDVSHEDPEVKFNWYVDGVEVHNAKTKPREEQYNSTYRVVSVLTVLHQDWLNGKEYKCKVSNKALGAPIEKTISKAKGQPREPQVCTLPPSRDELTKNQVSLSCAVKGFYPSDIAVEWESNGQPENNYKTTPPVLDSDGSFFLVSKLTVDKSRWQQGNVFSCSVMHEALHNHYTQKSLSLSP
light 2: QVQLVQSGAEVKKPGASVKVSCKASGYTFRSSYISWVRQAPGQGLEWMGWIYAGTGSPSYNQKLQGRVTMTTDTSTSTAYMELRSLRSDDTAVYYCARHRDYYSNSLTYWGQGTLVTVSSASVAAPSVFIFPPSDEQLKSGTASVVCLLNNFYPREAKVQWKVDNALQSGNSQESVTEQDSKDSTYSLSSTLTLSKADYEKHKVYACEVTHQGLSSPVTKSFNRGEC
notes: huIgG1 PG-LALA CrossFab; also called P1AF0151; HER3-CD28
Regarding B5, the binding result in test [9] is “binds”. For the same molecule, in test [10], the concentration giving a half-maximal response (EC50 (read off the curve)) is about 1 nM.

These data come from US20230416365A1 (Hoffmann-La Roche, published 2023).
